Laboratory results from patent publication CN113307874A (GUANGZHOU EXCELMAB BIOMEDICAL TECH CO LTD, dated 2021).
Where a chain is given by its changes, count along the chain named.

T1: 人LAG3抗原 (ACRO, Cat.LA3-H5222) (human, UniProt P18627 23-450)
T1 construct: Bought protein; also called human LAG3 antigen
T1 sequence (looked up): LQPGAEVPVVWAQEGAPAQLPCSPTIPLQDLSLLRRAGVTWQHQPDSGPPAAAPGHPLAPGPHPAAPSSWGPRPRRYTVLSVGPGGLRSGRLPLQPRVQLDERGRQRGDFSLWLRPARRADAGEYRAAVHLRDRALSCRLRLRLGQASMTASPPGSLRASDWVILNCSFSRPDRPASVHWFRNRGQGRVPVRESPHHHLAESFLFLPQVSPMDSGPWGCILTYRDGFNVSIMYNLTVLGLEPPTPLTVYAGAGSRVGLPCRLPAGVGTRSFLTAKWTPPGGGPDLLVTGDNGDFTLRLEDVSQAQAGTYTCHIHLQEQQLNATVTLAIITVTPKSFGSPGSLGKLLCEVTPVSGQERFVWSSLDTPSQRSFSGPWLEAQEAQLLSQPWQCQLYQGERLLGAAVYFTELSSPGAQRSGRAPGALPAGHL

T2: 过表达人LAG3抗原的Jurkat/LAG3细胞表面的人LAG3 (human, UniProt P18627 23-525)
T2 construct: whole, on cells; also called 过表达人LAG3的Jurkat细胞
T2 sequence (looked up): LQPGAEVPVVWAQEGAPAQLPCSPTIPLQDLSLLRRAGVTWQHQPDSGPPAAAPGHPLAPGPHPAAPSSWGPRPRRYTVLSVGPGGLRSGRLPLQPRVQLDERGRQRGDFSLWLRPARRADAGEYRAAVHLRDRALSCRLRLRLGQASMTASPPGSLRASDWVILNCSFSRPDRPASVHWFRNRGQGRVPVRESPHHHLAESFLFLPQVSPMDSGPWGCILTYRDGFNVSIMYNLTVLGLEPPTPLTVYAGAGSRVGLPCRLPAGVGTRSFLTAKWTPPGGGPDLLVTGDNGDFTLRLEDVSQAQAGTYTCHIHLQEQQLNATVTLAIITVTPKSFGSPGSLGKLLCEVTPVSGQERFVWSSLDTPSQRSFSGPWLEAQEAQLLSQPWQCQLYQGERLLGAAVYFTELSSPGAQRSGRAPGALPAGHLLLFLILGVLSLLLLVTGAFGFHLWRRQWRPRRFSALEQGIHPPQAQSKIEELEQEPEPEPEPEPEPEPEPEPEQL

B1: 人源化抗体 hmL42 (antibody, V domains shown)
VH: QVQLVQSGAEVKKPGASVKVSCKASGYTFTDYEVHWVKQAPGQGLEWMGAIHPGSGGAAYNQKVKGKVTMTADTSISTAYMELSRLRSDDTAVYYCTSYGWNDWGQGTTVTVS
VL: DIQLTQSPSFLSASVGDRVTITCKASQDVSTAVAWYQQKPGKSPKLLISWASTRHTGVPDRFAGSGSGTDFTLTISSLQPEDFATYYCQQYSSYPYTFGQGTKLEIK
B2: 鼠源抗LAG3抗体 mL42 (antibody, V domains shown)
VH: EVQLQQSGAELVRPGASVKLSCKALGYTFTDYEVHWLKQTPVRGLEWIGAIHPGSGGAAYNQKVKGKATLTADKSSSTAYMELSVLTSEDSAVYYCTSYGWNDWGQGTTLTVSS
VL: DILMNQSHKFMSTSVGDRVSIACKASQDVSTAVAWYQQKPGQSPKLLISWASTRHTGVPDRFAGSGSGTDFTLTINNVQSEDLADYFCQQYSSYPYTFGGGTKLELER
notes: detected with anti-human IgG secondary antibodies
B3: hmL42人源化亲和力成熟变体 R2D12 (antibody, V domains shown)
VH: B1 VH
VL: B1 VL with S92M, Y94F, P95A, Y96F
B4: hmL42人源化亲和力成熟变体 R2A8 (antibody, V domains shown)
VH: B1 VH
VL: B1 VL with Q89M, Q90G, S92W, S93V, Y94F
B5: hmL42人源化亲和力成熟变体 R2C9 (antibody, V domains shown)
VH: B1 VH
VL: B1 VL with Q89M, Q90S, S92V, S93V, Y94F
B6: hmL42人源化亲和力成熟变体 R3B6 (antibody, V domains shown)
VH: B1 VH
VL: B1 VL with S92L, Y94F, Y96F, T97M
B7: hmL42人源化亲和力成熟变体 R3C4 (antibody, V domains shown)
VH: B1 VH
VL: B1 VL with S92V, S93A, Y94F, P95S, Y96F
B8: hmL42人源化亲和力成熟变体 R3G5 (antibody, V domains shown)
VH: B1 VH
VL: B1 VL with S92V, S93M, Y94F, Y96F
B9: hmL42人源化亲和力成熟变体 R3B5 (antibody, V domains shown)
VH: B1 VH
VL: B1 VL with S92V, S93R, Y94F, P95S
B10: hmL42人源化亲和力成熟变体 R3H5 (antibody, V domains shown)
VH: B1 VH
VL: B1 VL with S92W, S93V, Y94F, P95S, Y96F
B11: hmL42人源化亲和力成熟变体 R3G4 (antibody, V domains shown)
VH: B1 VH
VL: B1 VL with S92I, S93D, Y94F, Y96F, T97V
B12: hmL42人源化亲和力成熟变体 R2H11 (antibody, V domains shown)
VH: B1 VH
VL: B1 VL with S92Y, Y94W, P95S
B13: hmL42人源化亲和力成熟变体 R2B11 (antibody, V domains shown)
VH: B1 VH
VL: B1 VL with S92V, S93V, Y94F, P95S, T97S
B14: hmL42人源化亲和力成熟变体 R2E8 (antibody, V domains shown)
VH: B1 VH
VL: B1 VL with Q89H, S92I, S93M, Y94F
B15: hmL42人源化亲和力成熟变体 R3G6 (antibody, V domains shown)
VH: B1 VH
VL: B1 VL with S92V, S93D, Y94F, Y96F, T97K
B16: hmL42人源化亲和力成熟变体 R2 (antibody, V domains shown)
VH: B1 VH
VL: B1 VL with Q89M, Q90G, S92L, S93F, Y94F
B17: hmL42人源化亲和力成熟变体 R3H9 (antibody, V domains shown)
VH: B1 VH
VL: B1 VL with S92V, S93D, Y94F
B18: hmL42人源化亲和力成熟变体 R2G10 (antibody, V domains shown)
VH: B1 VH
VL: B1 VL with S92W, S93E, Y94F, P95S, Y96F
B19: hmL42人源化亲和力成熟变体 R3D4 (antibody, V domains shown)
VH: B1 VH
VL: B1 VL with S92N, S93V, Y94F, P95A, Y96F
B20: hmL42人源化亲和力成熟变体 R3C5 (antibody, V domains shown)
VH: B1 VH
VL: B1 VL with S92W, S93V, Y94W, P95D, T97V

The binders below were run against T1, 人LAG3抗原 (ACRO, Cat.LA3-H5222) (assay: indirect ELISA, coated human LAG3).

| binding result | Binder |
| --- | --- |
| binds | B1 |
| binds | B2 |

Molecular target: T1, 人LAG3抗原 (ACRO, Cat.LA3-H5222)
Test: indirect ELISA, coated human LAG3
Remark: another data set of the same source

| EC50 | Binder |
| --- | --- |
| 0.119 µg/mL | B3 |
| 0.132 µg/mL | B4 |
| 0.221 µg/mL | B5 |
| 0.216 µg/mL | B6 |
| 0.248 µg/mL | B7 |
| 0.138 µg/mL | B8 |
| 0.184 µg/mL | B9 |
| 0.147 µg/mL | B10 |
| 0.175 µg/mL | B11 |
| 0.382 µg/mL | B12 |
| 0.244 µg/mL | B13 |
| 0.204 µg/mL | B14 |
| 0.206 µg/mL | B15 |
| 0.202 µg/mL | B16 |
| 0.183 µg/mL | B17 |
| 0.16 µg/mL | B18 |
| 0.112 µg/mL | B19 |
| 0.437 µg/mL | B20 |

These binders were tested against T2, 过表达人LAG3抗原的Jurkat/LAG3细胞表面的人LAG3 (assay: indirect flow cytometry on Jurkat/LAG3 cells).

| binding result | Binder |
| --- | --- |
| binds | B1 |
| binds | B2 |
